# From article PMC6624267, “Structures of autoinhibited and polymerized forms of CARD9 reveal mechanisms of CARD9 and CARD11 activation” (Nature Communications, 2019)
# Numbering of substitutions follows the chain as printed. Names and notes keep the numbering of the source.
# B1: CARD9^2−97 (CARD9 CARD alone), wild type (domain or fragment, human, UniProt Q9H257 2-97, looked up)
# chain: SDYENDDECWSVLEGFRVTLTSVIDPSRITPYLRQCKVLNPDDEEQVLSDPNLVIRKRKVGVLLDILQRTGHKGYVAFLESLELYYPQLYKKVTGK
# notes: CARD9, human, residues 2-97 (CARD); polymerisation started by EDTA; also called CARD9^2−97/WT; source: E. coli BL21(DE3), purified (Ni-NTA, TEV, Superdex 75); not shown: 6xHis, N-terminal, cleaved
# B2: CARD9^2−97/D43R/K58D (domain or fragment, human, UniProt Q9H257 2-97, looked up)
# chain: B1 chain with D42R, K57D
# notes: CARD9, human, residues 2-97 (CARD); also called charge-swap mutant of the Type III interface; source: E. coli BL21(DE3), purified (Ni-NTA, TEV, Superdex 75; insoluble mutants under denaturing conditions); not shown: 6xHis, N-terminal, cleaved
# B3: CARD11^8−109 (CARD11 CARD), wild type (domain or fragment, human, UniProt Q9BXL7 8-109, looked up)
# chain: MDDYMETLKDEEDALWENVECNRHMLSRYINPAKLTPYLRQCKVIDEQDEDEVLNAPMLPSKINRAGRLLDILHTKGQRGYVVFLESLEFYYPELYKLVTGK
# notes: CARD11 (CARMA1), human, residues 8-109 (CARD); also called WT CARD11 CARD; source: E. coli BL21(DE3), purified (Ni-NTA, TEV, Superdex 75); not shown: 6xHis, N-terminal, cleaved
# B4: CARD9^2−142 (domain or fragment, human, UniProt Q9H257 2-142, looked up)
# chain: SDYENDDECWSVLEGFRVTLTSVIDPSRITPYLRQCKVLNPDDEEQVLSDPNLVIRKRKVGVLLDILQRTGHKGYVAFLESLELYYPQLYKKVTGKEPARVFSMIIDASGESGLTQLLMTEVMKLQKKVQDLTALLSSKDD
# notes: Isotope-labelled samples with 1:1 ZnCl2 for NMR; not shown: 6xHis, N-terminal, cleaved
# B5: CARD9^2−152/L115I (domain or fragment, human, UniProt Q9H257 2-152, looked up)
# chain: SDYENDDECWSVLEGFRVTLTSVIDPSRITPYLRQCKVLNPDDEEQVLSDPNLVIRKRKVGVLLDILQRTGHKGYVAFLESLELYYPQLYKKVTGKEPARVFSMIIDASGESGITQLLMTEVMKLQKKVQDLTALLSSKDDFIKELRVKDS
# notes: not shown: 6xHis, N-terminal, cleaved
# Assays:
# [1] = target: the molecule itself; assay: absorbance at 350 nm + other: negative-stain EM; CARD9^2−97 polymerisation: 1:1 Zn2+-bound CARD, EDTA added at t = 0; 50 mM Tris, 150 mM NaCl, 0.5 mM TCEP, pH 7.0, 25 °C, shaking; NS-EM grids at 90 min
# [2] = target: the molecule itself; assay: negative-stain EM; CARD11^8−109 WT or mutants at 250 μM or 500 μM, 2 h at 25 °C, 50 mM HEPES, 50 mM NaCl, 0.5 mM TCEP, pH 7.0
# [3] = target: the molecule itself; assay: NMR solution structure; CARD9^2−142 dimer, 1 mM with 1:1 ZnCl2, 50 mM HEPES, 300 mM NaCl, 0.5 mM TCEP, pH 7.0, 37 °C; intermolecular NOEs from a mixed labelled/unlabelled sample, RDCs
# [4] = target: the molecule itself; assay: negative-stain EM; CARD9^2–152 constructs purified 1:1 with Zn2+, Zn2+ removed with a twofold excess of EDTA, incubated at the indicated concentration, time and temperature; 50 mM HEPES, 150 mM NaCl, 0.5 mM TCEP, pH 7.0; step: dimers to filaments
protein,measurement,setting,value
B1,binding result,[1],binds
B2,binding result,[1],binds
B3,binding result,[2],binds
B4,binding result,[3],binds
B5,binding result,[4],binds
